Laboratory results reported in the supplement of paper PMC12764529.
± gives the half width of the 95% confidence interval.

Key:
[1] = folding stability dG unfold (combined trypsin and chymotrypsin); higher = more stable
In short: (§1)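 Sequencing followed digestion of designed mini-proteins with trypsin and chymotrypsin, each at 11 concentrations in threefold dilutions together with a no-protease condition. The mini-proteins were under 80 residues, had no cysteine, sat in a PA-tagged cDNA display construct, and were kept only if AlphaFold2 dimer inter-PAE was above 15. From the counts, Bayesian fitting gave K50, and unfolding free energy was derived against a sequence-predicted unfolded-state K50 and a shared folded-state K50, per protease or combined.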

[2] = folding stability dG unfold from chymotrypsin proteolysis; higher = more stable
In short: as §1

[3] = folding stability dG unfold from trypsin proteolysis; higher = more stable
In short: as §1

Row | Sequence | folding stability dG unfold [1] | folding stability dG unfold [2] | folding stability dG unfold [3]
1 | SAGGGGSMTIVVPVEVSPETSEEEVRKRAEEIARPIAEELGKKVSIEVSREEDPEGGRRWTATITILSAGGS [r16_279_JUSTAS] | 2.71 ± 0.046 kcal/mol | 2.6 ± 0.017 kcal/mol | 2.88 ± 0.056 kcal/mol
2 | SAGGSAGGSEVKTITLTIKNKETNKEIKIEVQVFKNEDGELVFIAKAEITYNGKKYTFTVLLPSAGGSAGGS [r12_619_TrROS_Hall] | 4.43 ± 0.31 kcal/mol | 4.38 ± 0.16 kcal/mol | 3.82 ± 0.27 kcal/mol
3 | SAGGSAPSSGNVLEIKVEKLPDGTLVGTLTVKDPNSSNTTTIEITIPSSKTPEEAEAELKKIVEEASAGGSA [r15_181_JUSTAS] | 2.11 ± 0.057 kcal/mol | 2.09 ± 0.025 kcal/mol | 2.11 ± 0.068 kcal/mol
4 | SAGGSAGGSPETVTLTLTVTVKTVTLDPETGELTTTTHTVTLTLTLSKEDLEALLKSPELKKLSAGGSAGGS [r12_1015_TrROS_Hall] | 2.76 ± 0.17 kcal/mol | 3.09 ± 0.067 kcal/mol | 1.84 ± 0.05 kcal/mol
5 | SAGGSAGGSAGGTAEIYFPNFPIRIDSVQLSPEKNHVQVSMENPDGPPVKGTMPPKDGILSAGGSAGGSAGG [r7_427_TrROS] | 0.903 ± 0.042 kcal/mol | -0.127 ± 0.027 kcal/mol | 1.58 ± 0.031 kcal/mol
6 | SAGGMPENMKWRPIPFTQKNPDGLTLKMKIWVFPDPYILIEHEVEDNGKPVAEIPILLPADDPEDLKSAGGS [r16_714_TrROS] | 0.389 ± 0.2 kcal/mol | 0.513 ± 0.42 kcal/mol | -0.66 ± 0.6 kcal/mol
7 | SAGGSAGGSFEILEVHPVKDGWLMIVVRTPGKMKVITIPPDDLDEIPGLDDIAIFPVKDGEPISAGGSAGGS [r12_343_TrROS] | 1.38 ± 0.21 kcal/mol | 1.65 ± 0.12 kcal/mol | 1.28 ± 0.049 kcal/mol
8 | SAGGSISIPVYSPEDVIEAIEFIERYLREKGFPENEEATRIIVERLEDGRYRVIIEYPTRTIIIDDSAGGSA [r2_120_TrMRF] | 3.01 ± 0.067 kcal/mol | 3.09 ± 0.033 kcal/mol | 2.9 ± 0.049 kcal/mol
9 | SAGGMPDITEVELLDVEYDPETGTYRFRVKVKLKDGTEREVEIPFVDEDGDFGIEEILKAAEELVEESAGGS [r16_221_TrMRF] | 3.66 ± 0.18 kcal/mol | 4 ± 0.045 kcal/mol | 2.71 ± 0.14 kcal/mol
10 | SAGGSAGGSAGGSGVSITTTLPVKTTVLQPFNTFENKLLLKEVEKTILTTVTLTLPPLLSAGGSAGGSAGGS [r4_326_JUSTAS] | 0.148 ± 0.21 kcal/mol | -0.0828 ± 0.29 kcal/mol | 0.316 ± 0.068 kcal/mol
11 | SAGGRIEVRPLEGSGAVLVRILDPELRKKLEEKFPDVTEILFPVEGAEDIPLEELRDRAIKEIEELIDSAGG [r19_298_TrMRF] | 0.956 ± 0.059 kcal/mol | 0.187 ± 0.056 kcal/mol | 1.4 ± 0.051 kcal/mol
12 | SAGGSASIEIPVGDKPVRIEILSLEPEGERVRARAVVYFPDDPEYREISGDLTLEELIDAILEAIGSAGGSA [r15_944_TrMRF] | 1.21 ± 0.074 kcal/mol | 1.148 ± 0.011 kcal/mol | 1.3 ± 0.016 kcal/mol
13 | SGVLVVTHPDGSVSTVPFTHPDGLVVDISAGVDAPLYATVVRLLPDGTPEPLPVFEFDSIEDVLEALAEASA [r9_942_TrMRF] | 1.61 ± 0.023 kcal/mol | 1.983 ± 0.014 kcal/mol | 0.545 ± 0.016 kcal/mol
14 | SAGGSAGGSAMRINIKLPGVETESVEVDPEKGMITARLKFPEGRKVEISFFPDGNVKIHPVSAGGSAGGSAG [r3_348_TrROS] | 0.898 ± 0.11 kcal/mol | 0.751 ± 0.066 kcal/mol | 1.14 ± 0.05 kcal/mol
15 | SAGGSAGGDRIKIRFPDYRYEIEIPPGIESITTIQFHKDGWFTLTIPGNGQQIKIPIPPPDDDPSAGGSAGG [r6_370_TrROS] | 1.51 ± 0.24 kcal/mol | 1.73 ± 0.15 kcal/mol | 1.23 ± 0.057 kcal/mol
16 | SAGMVIELKTEEEAKAKAEEIAKKNPEANVTLVVTDPETGVKTVIPVKIESPKPKPEFDKKNGKYKDKGSAG [r5_870_JUSTAS] | -0.0134 ± 0.35 kcal/mol | -0.455 ± 0.45 kcal/mol | -0.126 ± 0.2 kcal/mol
17 | SAMIKVVLPGAKLEKVEVFPDKTVKAVFVAKDHLVEIYFDPETGKALIRVYDGEKEYEFVLDVHPDDVISAG [r14_218_TrMRF] | 4.33 ± 0.4 kcal/mol | 4.8 ± 0.25 kcal/mol | 3.47 ± 0.31 kcal/mol
18 | SHPDEFPKELVDAIAKAFPNIKRIEVEPLPDKFVLLKVEFIDGDGEGRVAFAVPTPDGETALHEYLVRNPSA [r9_678_TrMRF] | 1.14 ± 0.056 kcal/mol | 1.23 ± 0.062 kcal/mol | 1 ± 0.013 kcal/mol
19 | SAGGSAGGSAGMPKRKITKIETEELPPELIRVTITLPDGTPVPVVVSPDDEEVKAIIEKLSAGGSAGGSAGG [r11_122_JUSTAS] | 0.311 ± 0.24 kcal/mol | 0.113 ± 0.13 kcal/mol | -0.0513 ± 0.3 kcal/mol
20 | SAGGMEKIEIEVENEDGEKVKIEIYFDEETGFIVVKIEGENPELIDALKKKLGLEIVEKREDGYLVFKSAGG [r13_937_TrROS_Hall] | 3.48 ± 0.23 kcal/mol | 3.72 ± 0.13 kcal/mol | 3.01 ± 0.24 kcal/mol
21 | SAGGRAEEFATFLAELLRALLPPGEKVRATAVVTPEGVVVRVEHPLGFVAEALVKGDKLVRLELRPVSAGGS [r8_287_TrMRF] | 3.6 ± 0.11 kcal/mol | 3.82 ± 0.09 kcal/mol | 3.17 ± 0.13 kcal/mol
